Experimental data from patent publication US20040253629A1 (Stanford University, published 2004).

B1: Bok-L (Bcl-2-related ovarian killer, long form, rat) (other)
chain: MEVLRRSSVFAAEIMDAFDRSPTDKELVAQAKALGREYVHARLLRAGLSWSAPERASPAPGGRLAEVCTVLLRLGDELEQIRPSVYRNVARQLHIPLQSEPVVTDAFLAVAGHIFSAGITWGKVVSLYSVAAGLAVDCVRQAQPAMVHALVDCLGEFVRKTLATWLRRRGGWTDVLKCVVSTDPGFRSHWLVATLCSFGRFLKAAFFLLLPER
notes: also called full-length Bok protein
B2: BHRF1 (other)
chain: MAYSTREILLALCIRDSRVHGNGTLHPVLELAARETPLRLSPEDTVVLRYHVLLEEIIERNSETFTETWNRFITHTEHVDLDFNSVFLEIFHRGDPSLGRALAWMAWCMHACRTLCCNQSTPYYVVDLSVRGMLEASEGLDGWIHQQGGWSTLIEDNIPGSRRFSWTLFLAGLTLSLLVICSYLFISRGRH

Columns and labels:
Mcl-1 (rat) [1] = molecular target: T1, Mcl-1 (rat) (rat, UniProt Q9Z1P3 1-330); test: yeast two-hybrid, yeast cell growth grade (++ prominent, + moderate)
[2] = molecular target: B1; test: as above
Mcl-1 (rat) [3] = molecular target: T1, Mcl-1 (rat); test: yeast two-hybrid, mutant Bok-L-GAL4-AD vs GAL4-BD fusion
BHRF1 = molecular target: B2; test: yeast two-hybrid, Bok-S-GAL4-AD vs GAL4-BD fusion
Mcl-1 (rat) [4] = molecular target: T1, Mcl-1 (rat); test: yeast two-hybrid, Bok-S-GAL4-AD vs GAL4-BD fusion

T1 sequence (Q9Z1P3 whole entry): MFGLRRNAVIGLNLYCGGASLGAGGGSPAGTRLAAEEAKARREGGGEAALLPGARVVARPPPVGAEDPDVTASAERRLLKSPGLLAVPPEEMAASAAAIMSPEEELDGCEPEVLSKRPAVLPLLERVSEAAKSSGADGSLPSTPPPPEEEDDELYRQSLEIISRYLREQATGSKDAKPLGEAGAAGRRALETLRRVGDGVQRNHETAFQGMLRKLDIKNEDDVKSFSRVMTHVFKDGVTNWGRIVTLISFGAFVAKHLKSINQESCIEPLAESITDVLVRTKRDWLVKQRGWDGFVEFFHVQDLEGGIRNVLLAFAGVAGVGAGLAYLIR

B1: binds (Mcl-1 (rat) [1]).

B2: binds [2].

B3: BokAAA (Bok-L 75 AAA 77) (other)
chain: MEVLRRSSVFAAEIMDAFDRSPTDKELVAQAKALGREYVHARLLRAGLSWSAPERASPAPGGRLAEVCTVLLRLAAALEQIRPSVYRNVARQLHIPLQSEPVVTDAFLAVAGHIFSAGITWGKVVSLYSVAAGLAVDCVRQAQPAMVHALVDCLGEFVRKTLATWLRRRGGWTDVLKCVVSTDPGFRSHWLVATLCSFGRFLKAAFFLLLPER
notes: also called BokAAA: 75 AAA 77
B3: no binding (Mcl-1 (rat) [3]).

B4: BokADE (Bok-L G75A) (other)
chain: MEVLRRSSVFAAEIMDAFDRSPTDKELVAQAKALGREYVHARLLRAGLSWSAPERASPAPGGRLAEVCTVLLRLADELEQIRPSVYRNVARQLHIPLQSEPVVTDAFLAVAGHIFSAGITWGKVVSLYSVAAGLAVDCVRQAQPAMVHALVDCLGEFVRKTLATWLRRRGGWTDVLKCVVSTDPGFRSHWLVATLCSFGRFLKAAFFLLLPER
notes: also called BokADE: G 75 A
B4: no binding (Mcl-1 (rat) [3]).

B5: BokGGGG (Bok-L 71 LLRL 74 to 71 GGGG 74) (other)
chain: MEVLRRSSVFAAEIMDAFDRSPTDKELVAQAKALGREYVHARLLRAGLSWSAPERASPAPGGRLAEVCTVGGGGGDELEQIRPSVYRNVARQLHIPLQSEPVVTDAFLAVAGHIFSAGITWGKVVSLYSVAAGLAVDCVRQAQPAMVHALVDCLGEFVRKTLATWLRRRGGWTDVLKCVVSTDPGFRSHWLVATLCSFGRFLKAAFFLLLPER
notes: also called BokGGGG mutant
B5: no binding (Mcl-1 (rat) [3]).

B6: Bok-S (short splicing variant of Bok, rat) (other)
chain: MEVLRRSSVFAAEIMDAFDRSPTDKELVAQAKALGREYVHARLLRAGLSWSAPERASPAPGGRLAEVCTVLLRLGITWGKVVSLYSVAAGLAVDCVRQAQPAMVHALVDCLGEFVRKTLATWLRRRGGWTDVLKCVVSTDPGFRSHWLVATLCSFGRFLKAAFFLLLPER
notes: also called truncated Bok
B6: no binding (BHRF1); no binding (Mcl-1 (rat) [4]).
